We go through 1 protein from publication PMC11180644, “Discovery, characterization and mechanism of a Microbacterium esterase for key d-biotin chiral intermediate synthesis” (Bioresources and Bioprocessing, 2024).

Substrate in the data set: COC(=O)[C@@H]1[C@H](C(=O)OC)N(Cc2ccccc2)C(=O)N1Cc1ccccc1
In words: HPLC of released monomethyl ester; Michaelis-Menten fit (GraphPad Prism). Type of data set: biochemical, Microbacterium aurantiacum. The note with it: 0.2 mol/L PBS pH 8.0, 30 °C, 10 min, DMSO as substrate solvent, 0.1-12 mmol/L diester. An excerpt: HPLC of released monomethyl ester; Michaelis-Menten fit (GraphPad Prism) on […]01 | the Km value

B1: EstSIT01 (Microbacterium aurantiacum) (protein)
chain: MTLFDGITSRIVDTDRLTVNILERAADDPQTPPDRTVVFVHGNVSSALFWQEIMQDLPSDLRAIAVDLRGFGGSEHAPVDATRGVRDFSDDLHATLEALDIPVAHLVGWSMGGGVVMQYALDHPVLSLTLQSPVSPYGFGGTRRDGSRLTDDDAGCGGGGANPDFIQRLIDHDTSDDAQTSPRSVFRAGYVASDYTTDHEDVWVESMLTTSTADGNYPGDAVPSDNWPGFAAGRHGVLNTMAPQYFDVSGIVDLAEKPPILWIHGTADAIVSDASFYDLNYLGQLGIVPGWPGEDVAPAQEMVSQTRDVLGRYAAGGGTVTEVAVEGAGHSAHLERPAVFRHALLEIIGYVGAAADPAPPTEAIIIRSAD
notes: C-terminal 6xHis tag, pET21a, E. coli BL21(DE3), Ni-NTA purified; catalytic triad Ser110-His330-Asp268
Broadly, the Km is the concentration of substrate that gives half-maximal velocity. For orientation: kcat means the maximal rate divided by the concentration of active sites. On to B1, for which the Km worked out at 147 µM and the turnover number (kcat) worked out at 5.808 s⁻¹.
